What was measured:
[1] = molecular target: T1, human CD47 tagged with mouse Fc (human, UniProt Q08722 19-139, limits assumed); test: ELISA on immobilized recombinant CD47
T1 construct: also called recombinant CD47 antigen
Description: FIG. 7: SIRPα-rituximab bispecific reagents bind to CD47 with reduced affinity relative to anti-CD47 and other bispecific antibody formats. Binding of the indicated antibodies to the recombinant CD47 antigen was measured by ELISA over a range of concentrations. Immobilized human CD47 tagged with mouse Fc was used to capture the indicated antibodies prior to detection with HRP-conjugated antibody directed against the human kappa light chain. Data are representative of three experiments performed in triplicate.

human CD20 [2] = molecular target: T2, human CD20 (human, UniProt P11836 1-297); test: flow cytometry on CD20+CD47- YB2/0 cells
T2 construct: whole, on cells; also called MS4A1
T2 sequence (looked up): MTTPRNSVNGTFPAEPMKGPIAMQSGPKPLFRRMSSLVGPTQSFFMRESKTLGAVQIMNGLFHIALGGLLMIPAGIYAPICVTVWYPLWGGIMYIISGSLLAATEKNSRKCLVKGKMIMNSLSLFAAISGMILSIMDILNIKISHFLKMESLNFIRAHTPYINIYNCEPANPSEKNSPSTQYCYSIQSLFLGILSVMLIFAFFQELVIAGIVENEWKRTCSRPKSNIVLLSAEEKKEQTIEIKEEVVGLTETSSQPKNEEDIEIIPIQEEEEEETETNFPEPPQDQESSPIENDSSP
Excerpt: FIG. 3A-3B: SIRPα-rituximab bispecific reagents bind to CD20 on the cell surface. The indicated antibodies were used to stain rat YB2/0 cells engineered to express human CD20, but not human CD47 (CD20+CD47−) prior to detection with anti-human secondary antibody by flow cytometry. 2B8=anti-CD20, B6H12=anti-CD47.

human CD47 = molecular target: T3, human CD47 (human, UniProt Q08722 19-323); test: flow cytometry on CD20-CD47+ YB2/0 cells
T3 construct: whole, on cells
Excerpt: FIG. 5A-5B: SIRPα-rituximab bispecific reagents bind to CD47 on the cell surface with reduced affinity relative to anti-CD47. The indicated antibodies were used to stain rat YB2/0 cells engineered to express human CD47, but not human CD20 (CD20−CD47+) prior to detection with fluorescently tagged anti-human secondary antibody by flow cytometry. 2B8=anti-CD20, B6H12=anti-CD47.

human CD20 [3] = molecular target: T2, human CD20; test: flow cytometry competition with 10 µg/ml DyLight 488 anti-CD20 on CD20+CD47- YB2/0 cells
Excerpt: FIG. 4: SIRPα-rituximab bispecific reagents bind to CD20 with similar affinity as parental antibody.

Measured: binding result

B1: CD20-2GL-SIRPα (bispecific antibody, human IgG1, kappa)
heavy: not shown
light: QIVLSQSPAILSASPGEKVTMTCRASSSVSYIHWFQQKPGSSPKPWIYATSNLASGVPVRFSGSGSGTSYSLTISRVEAEDAATYYCQQWTSNPPTFGGGTKLEIKRTVAAPSVFIFPPSDEQLKSGTASVVCLLNNFYPREAKVQWKVDNALQSGNSQESVTEQDSKDSTYSLSSTLTLSKADYEKHKVYACEVTHQGLSSPVTKSFNRGEC
notes: Wild type human SIRPα N-terminal Ig fold fused to the C terminus of the rituximab heavy chain through (GGGGS)2; also called CD20-2GL-SIRPα HC; SIRPabody
binds: [1] | human CD20 [2] | human CD47

B2: CD20-4GL-SIRPα (bispecific antibody, human IgG1, kappa)
heavy: not shown
light: B1 light
notes: Wild type human SIRPα N-terminal Ig fold fused to the C terminus of the rituximab heavy chain through (GGGGS)4; also called SIRPabody; SIRPα-rituximab bispecific reagent
binds: [1] | human CD20 [2] | human CD47

B3: SIRPα-CD20 (bispecific antibody, human IgG1, kappa)
heavy: not shown
light: B1 light
notes: also called SIRPabody; SIRPα-rituximab bispecific reagent
binds: [1] | human CD20 [3] | human CD47

Source: patent publication US20180355053A1 (Stanford University, published 2018)
